Laboratory results taken from patent publication EP4566632A1 (Nona Biosciences (Suzhou) Co., Ltd., dated 2024).

Legend:
[1] = molecular target: T1, Human MSLN (Acro Biosystems, Cat #: MSN-H5223) (human, UniProt Q13421 296-580, limits assumed); test: ELISA, human MSLN protein coated on plate
T1 construct: extracellular domain; Bought protein; also called human MSLN protein; recombinant human MSLN ECD His-tag protein; not shown: His tag

[2] = molecular target: T2, cynomolgus monkey MSLN protein (Harbour BioMed, Batch #: 2019072202) (cynomolgus monkey); test: ELISA, cynomolgus monkey MSLN protein coated on plate
T2 construct: also called recombinant cynomolgus monkey MSLN ECD His-tag protein
T2 chain: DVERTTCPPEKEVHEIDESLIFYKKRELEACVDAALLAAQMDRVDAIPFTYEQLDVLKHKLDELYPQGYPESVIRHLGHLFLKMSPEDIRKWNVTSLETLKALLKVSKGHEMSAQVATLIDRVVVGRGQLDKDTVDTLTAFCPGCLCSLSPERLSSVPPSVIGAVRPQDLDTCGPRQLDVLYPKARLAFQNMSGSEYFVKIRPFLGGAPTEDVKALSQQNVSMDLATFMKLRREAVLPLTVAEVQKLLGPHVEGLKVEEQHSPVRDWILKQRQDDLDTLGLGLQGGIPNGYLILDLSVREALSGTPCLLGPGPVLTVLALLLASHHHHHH

T1 sequence (Q13421 other isoform, or with tags, fused parts or gaps limits assumed): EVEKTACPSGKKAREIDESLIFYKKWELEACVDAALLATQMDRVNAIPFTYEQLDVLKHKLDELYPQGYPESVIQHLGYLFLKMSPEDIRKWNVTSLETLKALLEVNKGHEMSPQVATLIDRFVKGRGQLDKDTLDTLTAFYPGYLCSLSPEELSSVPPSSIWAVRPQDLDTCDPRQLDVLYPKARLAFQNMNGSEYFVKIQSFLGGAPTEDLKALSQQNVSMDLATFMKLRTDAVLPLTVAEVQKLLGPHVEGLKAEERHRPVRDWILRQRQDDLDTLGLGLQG

| Binder | EC50 [1] [nM] | Span [1] | EC50 [2] [nM] | Span [2] |
| --- | --- | --- | --- | --- |
| PR300186 (antibody, human IgG1, kappa, V domains shown, Initial antibody from Harbour H2L2 transgenic mice; also called anti-MSLN antibody PR300186) VH: QVQLQESGPGLVKPSETLSLTCTVSGGSINNYYWSWVRQPPGKGLEWIGYIFYSGSTNSNPSLKSRVIISVDTSKNQFSLKLSSVTAADTAVYYCAREVGRIAVAGWFFDLWGRGTLVTVSS VL: not shown | 0.12 | 3.42 | 0.05 | 2.33 |
| PR300186-2 (antibody, human IgG1, kappa, V domains shown, PTM variant of PR300186: Heavy chain N30Q) VH: QVQLQESGPGLVKPSETLSLTCTVSGGSIQNYYWSWVRQPPGKGLEWIGYIFYSGSTNSNPSLKSRVIISVDTSKNQFSLKLSSVTAADTAVYYCAREVGRIAVAGWFFDLWGRGTLVTVSS VL: not shown | 0.14 | 3.36 | 0.05 | 2.43 |
| PR300186-8 (antibody, human IgG1, kappa, V domains shown, PTM variant of PR300186: Heavy chain N30Q and S59A, Light chain S31A) VH: QVQLQESGPGLVKPSETLSLTCTVSGGSIQNYYWSWVRQPPGKGLEWIGYIFYSGSTNANPSLKSRVIISVDTSKNQFSLKLSSVTAADTAVYYCAREVGRIAVAGWFFDLWGRGTLVTVSS VL: not shown | 0.13 | 3.87 | 0.04 | 2.18 |
| PR300186-9 (antibody, human IgG1, kappa, V domains shown, PTM variant of PR300186: Light chain S31A) VH: QVQLQESGPGLVKPSETLSLTCTVSGGSINNYYWSWVRQPPGKGLEWIGYIFYSGSTNSNPSLKSRVIISVDTSKNQFSLKLSSVTAADTAVYYCAREVGRIAVAGWFFDLWGRGTLVTVSS VL: not shown | 0.11 | 3.85 | 0.05 | 2.19 |
| PR300186-3 (antibody, human IgG1, kappa, V domains shown, PTM variant of PR300186: Heavy chain N30Q and N58Q) VH: QVQLQESGPGLVKPSETLSLTCTVSGGSIQNYYWSWVRQPPGKGLEWIGYIFYSGSTQSNPSLKSRVIISVDTSKNQFSLKLSSVTAADTAVYYCAREVGRIAVAGWFFDLWGRGTLVTVSS VL: not shown | 0.1 | 3.25 | 0.05 | 2.36 |
| PR300186-4 (antibody, human IgG1, kappa, V domains shown, PTM variant of PR300186: Heavy chain N30Q and N58Q, Light chain N30Q) VH: QVQLQESGPGLVKPSETLSLTCTVSGGSIQNYYWSWVRQPPGKGLEWIGYIFYSGSTQSNPSLKSRVIISVDTSKNQFSLKLSSVTAADTAVYYCAREVGRIAVAGWFFDLWGRGTLVTVSS VL: not shown | 0.18 | 3.47 | 0.07 | 2.53 |
| PR300186-6 (antibody, human IgG1, kappa, V domains shown, PTM variant of PR300186: Heavy chain N30Q and S59A) VH: QVQLQESGPGLVKPSETLSLTCTVSGGSIQNYYWSWVRQPPGKGLEWIGYIFYSGSTNANPSLKSRVIISVDTSKNQFSLKLSSVTAADTAVYYCAREVGRIAVAGWFFDLWGRGTLVTVSS VL: not shown | 0.21 | 3.66 | 0.07 | 2.67 |
| PR300186-5 (antibody, human IgG1, kappa, V domains shown, PTM variant of PR300186: Light chain N30Q) VH: QVQLQESGPGLVKPSETLSLTCTVSGGSINNYYWSWVRQPPGKGLEWIGYIFYSGSTNSNPSLKSRVIISVDTSKNQFSLKLSSVTAADTAVYYCAREVGRIAVAGWFFDLWGRGTLVTVSS VL: not shown | 0.22 | 3.61 | 0.07 | 2.7 |
| PR300186-7 (antibody, human IgG1, kappa, V domains shown, PTM variant of PR300186: Heavy chain N30Q, Light chain S31A) VH: QVQLQESGPGLVKPSETLSLTCTVSGGSIQNYYWSWVRQPPGKGLEWIGYIFYSGSTNSNPSLKSRVIISVDTSKNQFSLKLSSVTAADTAVYYCAREVGRIAVAGWFFDLWGRGTLVTVSS VL: not shown | 0.14 | 3.85 | 0.04 | 2.24 |
| PR300186-10 (antibody, human IgG1, kappa, V domains shown, PTM variant of PR300186: Heavy chain N30Q and N58Q, Light chain S31A) VH: QVQLQESGPGLVKPSETLSLTCTVSGGSIQNYYWSWVRQPPGKGLEWIGYIFYSGSTQSNPSLKSRVIISVDTSKNQFSLKLSSVTAADTAVYYCAREVGRIAVAGWFFDLWGRGTLVTVSS VL: not shown | 0.1 | 3.71 | 0.04 | 2.19 |
